Consider 1 molecule from patent US20220288204A1, “DOSAGE AND ADMINISTRATION OF ANTI-ERBB3 (HER3) MONOCLONAL ANTIBODIES TO TREAT TUMORS ASSOCIATED WITH NEUREGULIN 1 (NRG1) GENE FUSIONS” (ELEVATION ONCOLOGY, INC., priority 2021, published 2022).

The subject of assay [1] is NRG1-β1-stimulated MCF-7 cells. In words: NRG1-β1-stimulated growth of MCF-7 cells. The format is cell-based, human. Here is the method: MCF-7 cells were treated with the indicated concentrations of NRG1-b1 for 10 minutes, and then cell extracts were prepared and subjected to Western blotting for the indicated phosphorylated (p) or total (t) proteins (FIG. 2A). […] Data were analyzed by nonlinear regression using GraphPad Prism 8. There were four replicates of each condition and data represent the mean±SD. […] Cells were counted on the days indicated on the graph. Results represent the mean±SD of duplicates of each condition in one representative experiment. MDA-MB-175-VII (FIG. 2D) and LUAD-0061AS3 (FIG. 2E) cells were treated with the indicated concentrations of inhibitors for 48 hours, and then caspase 3/7 enzymatic activity was measured in cell homogenates. Carfilzomib (20S proteasome inhibitor) was used as a positive control for apoptosis. […]
For the time-course experiments, cells were plated at a density of 5,000 (HCC-95) or 10,000 (all others) cells per well in 12-well tissue culture plates, and then treated 24 hours later (time 0) with the respective agents. […] Cells were trypsinized and counted at the relevant time-point shown on the graphs. […] AlamarBlue is a cell permeable […] dye that is reduced when it enters the mitochondria and emits fluorescence at a different wavelength (Gloeckner H, J. Immunol. Methods 2001; 252:131-8). […]

Assay [2] deals with LUAD-0061AS3 PDX tumors. In words: NSCLC PDX model efficacy (SLC3A2-NRG1). Format: in vivo, mice. Here is the method:
(§1) Characterization of the […] PDX model. H&E staining, TTF-1, and phospho-HER3 IHC (FIG. 5A, left to right). […] (FIG. 5B). Tumor volumes were measured twice weekly and plotted overtime. Results represent the mean±SEM. […] Western blotting was performed twice for each protein and representative immunoblots of phosphorylated (p) and total (t) proteins are shown (FIG. 5C).
(§2) Crushed PDX tumor samples were mixed with Matrigel (50%) and injected into the subcutaneous flank of 6-week-old female NSG (LUAD-0061AS3) or Balb/c nude (OV-10-0050) mice. When tumors reached approximately 100-150 mm3, mice were randomly assigned to groups of 5-8 and treatment was commenced. There were 2 mice per group with bilateral flank tumors for the protein phosphorylation/expression study in the LUAD-0061AS3 PDX model. Drugs were administered once, and then tumors were collected at 2, 24, and 168 hours posttreatment. Afatinib was administered by oral gavage once daily as a suspension (in 0.5% methylcellulose-0.4% Tween-80) on a 5-days-on and 2-days-off schedule. […] Mice were observed daily throughout the treatment period for signs of morbidity and mortality. Tumor length and width and animal weights were measured twice weekly. Tumor volume was calculated using the empirical formula V=length×width 2×0.52. The percentage change in tumor volume of each tumor was calculated using the formula [(V2−V1)/V1)]×100, where V1 is the starting tumor volume and V2 is the final tumor volume.
The 5 mg/kg daily dose of afatinib is equivalent to the human dose of […] daily, which is the maximum approved dose for patients.
The tumor volume as a function of time is illustrated in FIG. 5B, and the AUC computed for each group to facilitate comparison of tumor volume between groups at the last date all groups had surviving animals (day 35) was determined. […] The highest dose of afatinib (15 mg/kg) was also effective at causing regression of six of seven tumors in the.

For assay [3], the system named is EGFR, HER2, HER3, HER4, downstream signaling, apoptosis and cell-cycle proteins in MDA-MB-175-VII cells. Put plainly: Western blotting of protein phosphorylation and expression. Format: cell-based, human. The method, then:
Whole-cell extracts were prepared after all treatments and subjected to SDS-PAGE, followed by immunoblotting for the phosphorylated (p) or total (t) proteins shown in each panel. All Western blotting studies were conducted at least two times and representative immunoblots of phosphorylated (p) and total (t) proteins are shown.
(§3) These events likely culminate in inhibition of growth and impaired survival.
As observed with phosphor-ylation of some proteins, cyclin D1 level began to be restored by 12 hours (FIG. 4D).

Assay [4] concerns HER2, HER3, AKT, ERK1/2 phosphorylation and BIM in LUAD-0061AS3 PDX tumors. In words: Western blotting of PDX tumor lysates after single administration. Format: in vivo, mice. The method, then: as §1, §2
Protein phosphorylation was then detected by Western blotting of PDX tumor lysates.

The test system of assay [5] is HER2, HER3, EGFR and downstream effectors in HCC-95 cells. Put plainly: Western blotting of protein phosphorylation. The format is cell-based, human.
From the text: as §3
For orientation: A western blot detects proteins with antibodies after separation by electrophoresis.

“Also recorded” adds a separate entry of the source.

B1: seribantumab: anti-ERBB3 (HER3) fully human monoclonal antibody; heavy and light chains SEQ ID NOs: 12 and 13 (antibody)
heavy: EVQLLESGGGLVQPGGSLRLSCAASGFTFSHYVMAWVRQAPGKGLEWVSSISSSGGWTLYADSVKGRFTISRDNSKNTLYLQMNSLRAEDTAVYYCTRGLKMATIFDYWGQGTLVTVSSASTKGPSVFPLAPCSRSTSESTAALGCLVKDYFPEPVTVSWNSGALTSGVHTFPAVLQSSGLYSLSSVVTVPSSNFGTQTYTCNVDHKPSNTKVDKTVERKCCVECPPCPAPPVAGPSVFLFPPKPKDTLMISRTPEVTCVVVDVSHEDPEVQFNWYVDGVEVHNAKTKPREEQFNSTFRVVSVLTVVHQDWLNGKEYKCKVSNKGLPAPIEKTISKTKGQPREPQVYTLPPSREEMTKNQVSLTCLVKGFYPSDIAVEWESNGQPENNYKTTPPMLDSDGSFFLYSKLTVDKSRWQQGNVFSCSVMHEALHNHYTQKSLSLSPGK
light: QSALTQPASVSGSPGQSITISCTGTSSDVGSYNVVSWYQQHPGKAPKLIIYEVSQRPSGVSNRFSGSKSGNTASLTISGLQTEDEADYYCCSYAGSSIFVIFGGGTKVTVLGQPKAAPSVTLFPPSSEELQANKATLVCLVSDFYPGAVTVAWKADGSPVKVGVETTKPSKQSNNKYAASSYLSLTPEQWKSHRSYSCRVTHEGSTVEKTVAPAECS
As to B1, in assay [1] (pretreated 2 μmol/L seribantumab 1 hour, 10 ng/mL NRG1-β1, up to 10 days), the “NRG1-β1-stimulated growth, temporal study” value is recorded as “prevented NRG1-β1-stimulated growth completely”. For the same molecule, the “growth (viability) of NRG1-β1-stimulated cells” value in assay [1] (seribantumab 0.125 μmol/L (lowest used), NRG1-β1 0-5 ng/mL, 96 hours) is on record as “largely suppressed growth”. For the same molecule, the results for the tumors with regression result in assay [2] (0.75 mg seribantumab twice weekly) and in assay [2] (1 mg seribantumab twice weekly) were “four of seven” and “six of seven”, respectively. In addition, the “efficacy compared with afatinib” value in assay [2] (1 mg BIW seribantumab vs 15 mg/kg daily afatinib) is “as effective as the 15 mg/kg daily dose of afatinib; also recorded: as effective as the highest dose of afatinib”. For the same molecule, the maximum tumor reduction in assay [2] (1 mg seribantumab twice weekly, by day 42) is given as 57.2%±2.6%. In addition, the tumor volume entry in assay [2] (all doses of seribantumab tested (0.6, 0.75, 1 mg twice weekly)) is “bigger decrease in tumor volume”. Besides, the tumor regression entry in assay [2] (dosage lower than that used in human trials) is given as “more than 50%”. In assay [3] (2 mmol/L seribantumab, up to 24 hours), the “phosphorylation of AKT over time” value is “remained completely inhibited for the entire 24-hour treatment period”. Also, the “expression of proapoptotic proteins cleaved-PARP and PUMA” value in assay [3] (seribantumab, 6-24 hours) is listed as “elevated”. The “level of cyclin D1” value in assay [3] (seribantumab, up to 24 hours) is “undetectable by 6 hours”. Moreover, the “time to full inhibition of phosphorylation of HER3, HER4, and downstream signaling” value in assay [3] (seribantumab, up to 24 hours) was found to be 30 min. Besides, in assay [3] (serum-starved, 3 hours), the “phosphorylation of HER3, HER2, EGFR, and HER4” value is “fully inhibited”. Moreover, the “BIM expression in tumors” value in assay [4] (0.75 and 1 mg seribantumab, by 2 hours) is given as “higher levels of BIM than vehicle-treated tumors”; in assay [4] (all doses of seribantumab, 168-hour timepoint), “Elevated BIM was present”; in assay [4] (all doses of seribantumab, after 24 hours), “Induction of BIM expression was clearly seen”. Further, the “phosphorylation of HER2, HER3, AKT, and ERK1/2 in tumors” value in assay [4] (all doses of seribantumab (0.6, 0.75, 1 mg), single administration, 2-hour timepoint) was “reduced phosphorylation”. Also, in assay [4] (seribantumab higher doses, 168 hours), the “HER2 phosphorylation in tumors” value is “remained inhibited even after 168 hours”. For the same molecule, the EGFR phosphorylation result in assay [5] is on record as “little effect”. In addition, in assay [5], the “phosphorylation of HER2, HER3, and downstream effectors” value was “inhibited phosphorylation”.
